Target: T1, human progastrin (human)
T1 construct: 80-residue progastrin; also called hPG; PG
T1 chain: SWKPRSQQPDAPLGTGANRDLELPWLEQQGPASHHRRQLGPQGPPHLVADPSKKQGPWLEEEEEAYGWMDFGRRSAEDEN
Experiment: epitope mapping (no details given)

B1: mAb19 (antibody, V domains shown)
VH: DVQLQESGPGLVKPSQSLSLTCTVTGYSITSDYAWNWIRQFPGNKLEWMGYISFSGYTSYNPSLKSRISVTRDTSRNQFFLQLTSVTTEDTATYYCAREVNYGDSYHFDYWGQGTIVTVSS
VL: QLALTQSSSASFSLGASAKLTCTLSSQHRTYTIEWYQQQSLKPPKYVMEVKKDGSHSTGHGIPDRFSGSSSGADRYLSISNIQPEDEAIYICGVGDAIKGQSVFVFGGGTKVTVL
notes: Murine monoclonal antibody from a hybridoma; also called hybridoma 1B3B4F11
**Q.** Does B1 bind?
**A.** binds

B2: mAb16 (antibody, V domains shown)
VH: QVQLQQSGAELVKPGASVKLSCKASGYTFTSYYMYWVKQRPGQGLEWIGEINPSNGGTNFNEKFKSKATLTVDKSSSTAYMQLSSLTSEDSAVYYCTRGGYYPFDYWGQGTTLTVSS
VL: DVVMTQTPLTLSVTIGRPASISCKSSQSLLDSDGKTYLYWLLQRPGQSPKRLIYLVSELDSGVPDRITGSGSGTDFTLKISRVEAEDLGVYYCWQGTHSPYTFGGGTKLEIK
notes: Murine monoclonal antibody from a hybridoma; also called hybridoma 1E9D9B6
**Q.** Does B2 bind?
**A.** binds

B3: mAb4 (antibody, V domains shown)
VH: QVQLQQSGAELMKPGASVKISCKATGYTFSSSWIEWLKQRPGHGLEWIGEFLPGSGSTDYNEKFKGKATFTADTSSDTAYMLLSSLTSEDSAVYYCATDGNYDWFAYWGQGTLVTVSA
VL: DLVMTQTPLSLPVSLGDQASISCRSSQSLVHSSGVTYLHWYLQKPGQSPKLLIYKVSNRFSGVPDRFSGSGSGTDFTLKISRVEAEDLGVYFCSQSTHVPPTFGSGTKLEIK
notes: Murine monoclonal antibody from a hybridoma; also called hybridoma 20D2C3G2
**Q.** Does B3 bind?
**A.** binds

B4: mAb3 (antibody, V domains shown)
VH: EVQLQQSGTVLARPGASVKMSCKASGYIFTSYWVHWVKQRPGQGLEWIGGFYPGNSDSRYNQKFKGKATLTAVTSASTAYMDLSSLTNEDSAVYFCTRRDSPQYWGQGTTLTVSS
VL: DVLMTQTPLSLPVSLGDQASISCRSSQSIVHSNGNTYLEWYLQKPGQSPKLLIYKVSNRFSGVPDRFSGSGSGTDFTLKISRLEAEDLGVYYCFQGSHVPFTFGGGTKLEIK
notes: Murine monoclonal antibody from a hybridoma; also called hybridoma 6B5B11C10
**Q.** Does B4 bind?
**A.** binds

B5: mAb13 (antibody, V domains shown)
VH: EVQLVESGGGLVQPGGSLKLSCAASGFIFSSYGMSWVRQSPDRRLELVASINTFGDRTYYPDSVKGRFTISRDNAKNTLYLQMTSLKSEDTAIYYCARGTGTYWGQGTTLTVSS
VL: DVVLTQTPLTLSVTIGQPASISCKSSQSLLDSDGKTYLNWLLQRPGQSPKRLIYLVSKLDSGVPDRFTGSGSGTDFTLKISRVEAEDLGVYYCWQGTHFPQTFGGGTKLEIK
notes: Murine monoclonal antibody from a hybridoma; also called hybridoma 2C6C3C7
**Q.** Does B5 bind?
**A.** binds
